From article PMC6715450 (Nature, 2019)

Target: human apo-Calmodulin (cryo-EM complex) (human, UniProt P0DP23)
Test: cryo-EM structure

B1: full-length SidJ (cryo-EM complex) (enzyme)
chain: MFGFIKKVLDFFGVDQSEDNPSETAVETTDVSTKIKTTDTTQEESSVKTKTVVPTQPGGSVKPETIAPDQQKKHQIKTETTTSTTKQKGPKVTLMDGHVKQYYFARRGETSTHDTSLPPPVKVLSGRSIPLKEIPFEATRNELVQIYLTSIDKLIKSNKLNSIPSQQIASHYLFLRSLANSETDGIKKNQILSLAKPLGTYLASKEPHVWKMINELIEKSEYPIIHYLKNNRAHSNFMLALIHEYHKEPLTKNQSAFVQKFRDSSVFLFPNPIYTAWLAHSYDEDSSFNPMFRERLSTNFYHSTLTDNLLLRTEPKEVTLSSEHHYKKEKGPIDSSFRYQMSSDRLLRIQGRTLLFSTPQNDVVAVKVQKKGEPKSTLEEEFEMADYLLKHQRRLDVHSKLPQPLGQYSVKKSEILEISRGSLDFERFKTLIDDSKDLEVYVYKAPQSYFTYLHDKNQDLEDLTASVKTNVHDLFVLLREGIVFPQLADIFHTHFGEDEREDKGRYQALVQLLNVLQFQLGRIDKWQKAVEYVNLRSSGLADLGDSLPITSLFTSSDFTKHYFSELLTGGYHPTFFDKSSGTANSLFTGKRRLFGNYLYLNTIAEYLLVIQLTLGSYGDKVTRDMMDKPKKEAVWRELANVMFTSCAEAIHIMTGIPQSRALTLLKQRANIEKHFRQTQFWMTPDYSKLDEDTLQMEQYSIYSGEPEYEFTDKLVSGVGLSVDGVHQDLGGYNRESPLRELEKLLYATVTLIEGTMQLDKEFFKQLEQVEKILSGEIKTDANSCFEAVAQLLDLARPGCHFQKRLVLSYYEEAKLKYPSAPTDAYDSRFQVVARTNAAITIQRFWREARKNLSEKSDIDSEKPESERTTDKRL
B1: binds.
